Results from the supplement of paper PMC10567573.

B1: PDLIM4 (parent)
chain: FLDERLYCESHAKARVKPPEGYDV
B2: TCAP (parent)
chain: YQRVLPLPIFTPAKMGATKEERED

Variants of: B1
Test: protein stability index of a GFP-peptide fusion (GPS, HEK-293T) (PSI 1-6); higher = more stable
Details: c terminus: a fixed tail appended
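Also: lentivirally expressed fusions sorted by FACS into six bins by GFP to DsRed ratio, PSI derived from sequencing read proportions per bin multiplied by bin number.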

Protein stability index, by site and new letter:
C8: G 3.41, Q 2.44
D23: C 1.65, N 2.3, K 2.53, P 2.3, G 1.14, I 1.81, A 1.48, W 1.81, Q 2.23, H 3.11, S 2.85, T 2.03, F 1.73, Y 2.45
R15: N 1.53, E 1.34, D 1.93, P 1.26, V 1.77, W 3.92, L 2.41, F 2.33, I 2.03, H 3.03, Y 1.58, A 2.13, Q 2.41, C 1.97, K 2.18, T 1.67, M 1.18, G 1.7
K17: Q 1.86, C 1.99, F 2.12, D 1.27, S 1.48, Y 1.66, N 1.87, A 1.91, R 1.87, E 2.08, P 2.25, V 2.62, M 2.53, I 1.33, L 2.56, H 1.88
V16: S 3.79, P 1.64, N 1.96, Q 1.22, W 2.7, I 1.62, H 1.92, Y 1.51, R 1.5, D 2.14, T 3.71, K 3.09, M 1.53, C 1.43, G 1.57, A 1.75
A12: Q 1.37, G 2.68, I 1.6, C 1.23, N 1.42, F 3.29, H 1.77, Y 1.77, S 1.42, E 1.47, L 1.28, M 1.53, D 2.48, R 1.82, T 2.04
G21: I 2.25, A 1.83, M 2.4, F 1.72, D 2.94, Q 2.4, L 1.77, C 1.89, Y 2.09, E 2.62, T 2.14, V 2.34, S 1.69, H 1.59, W 1.49, K 1.63, P 1.8, N 2.4

Variants of: B2
Test: as above
Details: c terminus: a fixed tail appended

Protein stability index, by site and new letter:
R3: Q 2.78, F 2.63, E 2.03, D 2.03, C 3.12, P 1.55, S 2.3, I 1.73, T 2.05, A 2.15, L 1.86, G 3, M 3.43, Y 4.55, W 2.69, V 2.09, K 2.5, H 1.88, N 2.46
Q2: L 2.58, I 2.08, M 2.54, V 1.99, H 2.07, G 1.41, K 4.35, P 1.55, F 3.21, W 2.59, S 1.87, R 3.9, N 2.35, T 1.89, E 3.53, D 3.35, C 1.99, Y 2.93, A 1.92
V4: M 1.53, F 2.27, C 2, A 1.71, K 1.8, H 1.37, L 2.18, D 1.52, G 2.82, I 2.07, E 1.93
Y1: S 5.4, R 4.53, N 5.03, T 4.79, F 2.09, G 4.97, H 4.68, V 4.33, E 5.33, W 2.93, L 4.21, M 4.64, Q 5.25, A 5.43, I 3.9, K 5.06, P 5.44, C 4.53, D 5.35
